Assay results taken from US10801046B2, “Methods and materials for biosynthesizing multifunctional, multivariate molecules via carbon chain modification” (INVISTA NORTH AMERICA S.A.R.L., priority 2016, dated 2020).

Assays:
[1] = Aminotransferase activity, reverse direction (7-aminoheptanoate to 7-oxoheptanoate), L-alanine formation by RP-HPLC; format: biochemical; conditions: cell free extract, 10 mM substrate, 25° C., 4 h, against empty vector control, FIG. 48
Protocol: (§1) A sequence encoding an N-terminal His-tag was added to the genes from Chromobacterium violaceum, Pseudomonas syringae, Rhodobacter sphaeroides, and Vibrio Fluvialis encoding the aminotransferases of SEQ ID NOs: 116 (GenBank Accession No. AAQ59697.1), 126 (GenBank Accession No. AAY39893.1), 127 (GenBank Accession No. ABA81135.1), and 128 (GenBank Accession No. AEA39183.1), respectively such that N-terminal HIS tagged aminotransferases could be produced. Each of the resulting modified genes was cloned into a pET21a expression vector under control of the T7 promoter and each expression vector was transformed into a BL21 [DE3] E. coli host. The resulting recombinant E. coli strains were cultivated at 37° C. in a 250 mL shake flask culture containing 50 mL LB media and antibiotic selection pressure, with shaking at 230 rpm. Each culture was induced overnight at 16° C. using 1 mM IPTG.
(§2) The pellet from each induced shake flask culture was harvested via centrifugation. Each pellet was resuspended and lysed via sonication. The cell debris was separated from the supernatant via centrifugation and the cell free extract was used immediately in enzyme activity assays.
Enzyme activity assays in the reverse direction (i.e., 7-aminoheptanoate to 7-oxoheptanoate) were performed in a buffer composed of a final concentration of 50 mM HEPES buffer (pH=7.5), 10 mM 7-aminoheptanoate, 10 mM pyruvate and 100 μM pyridoxyl 5′ phosphate. Each enzyme activity assay reaction was initiated by adding cell free extract of the aminotransferase gene product or the empty vector control to the assay buffer containing the 7-aminoheptanoate and incubated at 25° C. for 4 h, with shaking at 250 rpm. The formation of L-alanine from pyruvate was quantified via RP-HPLC.

[2] = Aminotransferase activity, forward direction (7-oxoheptanoate to 7-aminoheptanoate), pyruvate formation by RP-HPLC; format: biochemical; conditions: cell free extract, 10 mM substrate, 10 mM L-alanine, 25° C., 4 h, against empty vector control, FIG. 49
Protocol: as §1
The pellet from each induced shake flask culture was harvested via centrifugation. Each pellet was resuspended and lysed via sonication. […]
Enzyme activity in the forward direction (i.e., 7-oxoheptanoate to 7-aminoheptanoate) was confirmed for the aminotransferases of SEQ ID NO: 126 (GenBank Accession No. AAY39893.1), SEQ ID NO: 127 (GenBank Accession No. ABA81135.1), and SEQ ID NO: 128 (GenBank Accession No. AEA39183.1). […] The formation of pyruvate was quantified via RP-HPLC.

[3] = Aminotransferase activity, heptane-1,7-diamine to 7-aminoheptanal, L-alanine formation by RP-HPLC; format: biochemical; conditions: cell free extract, 10 mM substrate, 25° C., 4 h, against empty vector control, FIG. 50
Protocol: A sequence encoding an N-terminal His-tag was added to the Chromobacterium violaceum, Pseudomonas aeruginosa, Pseudomonas syringae, Rhodobacter sphaeroides, Escherichia coli, and Vibrio fluvialis genes encoding the aminotransferases of SEQ ID NOs: 116 (GenBank Accession No. AAQ59697.1), 119 (RefSeq Accession No. NP_417544.5), 125 (GenBank Accession No. AAGO8191.1), 126 (GenBank Accession No. AAY39893.1), 127 (GenBank Accession No. ABA81135.1), and 128 (GenBank Accession No. AEA39183.1), respectively such that N-terminal HIS tagged aminotransferases could be produced. The modified genes were cloned into a pET21a expression vector under the T7 promoter. Each expression vector was transformed into a BL21[DE3] E. coli host. Each resulting recombinant E. coli strain were cultivated at 37° C. in a 250 mL shake flask culture containing 50 mL LB media and antibiotic selection pressure, with shaking at 230 rpm. Each culture was induced overnight at 16° C. using 1 mM IPTG.
as §2
Enzyme activity assays in the reverse direction (i.e., heptane-1,7-diamine to 7-aminoheptanal) were performed in a buffer composed of a final concentration of 50 mM HEPES buffer (pH=7.5), 10 mM heptane-1,7-diamine, 10 mM pyruvate, and 100 μM pyridoxyl 5′ phosphate. Each enzyme activity assay reaction was initiated by adding cell free extract of the aminotransferase gene product or the empty vector control to the assay buffer containing the heptane-1,7-diamine and then incubated at 25° C. for 4 h, with shaking at 250 rpm. The formation of L-alanine was quantified via RP-HPLC.

[4] = Aminotransferase activity, N7-acetyl-1,7-diaminoheptane to N7-acetyl-7-aminoheptanal, L-alanine formation by RP-HPLC; format: biochemical; conditions: cell free extract, 10 mM substrate, 25° C., 4 h, against empty vector control, FIG. 51
Protocol: The activity of the N-terminal His-tagged aminotransferases of SEQ ID NOs: 116 (GenBank Accession No. AAQ59697.1), 119 (RefSeq Accession No. NP_417544.5), 125 (GenBank Accession No. AAGO8191.1), 126 (GenBank Accession No. AAY39893.1), 127 (GenBank Accession No. ABA81135.1), and 128 (GenBank Accession No. AEA39183.1) (see Example 6) for converting N7-acetyl-1,7-diaminoheptane to N7-acetyl-7-aminoheptanal was assayed using a buffer composed of a final concentration of 50 mM HEPES buffer (pH=7.5), 10 mM N7-acetyl-1,7-diaminoheptane, 10 mM pyruvate and 100 μM pyridoxyl 5′ phosphate. Each enzyme activity assay reaction was initiated by adding a cell free extract of the aminotransferases or the empty vector control to the assay buffer containing the N7-acetyl-1,7-diaminoheptane then incubated at 25° C. for 4 h, with shaking at 250 rpm. The formation of L-alanine was quantified via RP-HPLC.

[5] = In vivo aminotransferase activity screening, 7-aminoheptanoate by LC-MS; format: cell-based, Escherichia coli; conditions: in vivo conversion of 7-oxoheptanoate to 7-aminoheptanoate, 120 aminotransferases screened
Summary of the method: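 Aminotransferase library expressed in E. coli T7 Express lysY/Iq co-expressing sfp, CAR_Srot and BioC, grown overnight at 37° C in rich media with 0.4 mM IPTG and 1 g/L monomethyl heptanedioate, heptanedioate or no acid. Culture supernatants analysed by LC-MS for 7-aminoheptanoate or its monomethyl ester.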

B1: SEQ ID NO: 128: Vibrio fluvialis aminotransferase, positive control of the in vivo screen (protein, listed as Vibrio fluvialis)
chain: MNKPQSWEARAETYSLYGFTDMPSLHQRGTVVVTHGEGPYIVDVNGRRYLDANSGLWNMVAGFDHKGLIDAAKAQYERFPGYHAFFGRMSDQTVMLSEKLVEVSPFDSGRVFYTNSGSEANDTMVKMLWFLHAAEGKPQKRKILTRWNAYHGVTAVSASMTGKPYNSVFGLPLPGFVHLTCPHYWRYGEEGETEEQFVARLARELEETIQREGADTIAGFFAEPVMGAGGVIPPAKGYFQAILPILRKYDIPVISDEVICGFGRTGNTWGCVTYDFTPDAIISSKNLTAGFFPMGAVILGPELSKRLETAIEAIEEFPHGFTASGHPVGCAIALKAIDVVMNEGLAENVRRLAPRFEERLKHIAERPNIGEYRGIGFMWALEAVKDKASKTPFDGNLSVSERIANTCTDLGLICRPLGQSVVLCPPFILTEAQMDEMFDKLEKALDKVFAEVA
- acceptance of 7-aminoheptanoate as substrate [1]: accepted 7-aminoheptanote as substrate
- acceptance of 7-oxoheptanoate as substrate, forming 7-aminoheptanoate [2]: accepted 7-oxoheptanoate as a substrate
- acceptance of heptane-1,7-diamine as substrate, forming 7-aminoheptanal [3]: accepted heptane-1,7-diamine as substrate
- acceptance of N7-acetyl-1,7-diaminoheptane as substrate, forming N7-acetyl-7-aminoheptanal [4]: accepted N7-acetyl-1,7-diaminoheptane as a substrate
- 7-aminoheptanoate yield compared to the positive control (F2XBU9) [5]: higher 7-aminoheptanoate yields
